*1 amine or outer side, *2 acyl side, *3 side chain or, on linkers, in order; H or OH if unused. Where no end group is shown, it is not given here. [ ]: non-standard residue; d: D form. Tyr(Me) = O-methyl-tyrosine, COc1ccc(C[C@H](N[*:1])C(=O)[*:2])cc1; Trp(1-Me) = Cn1cc(C[C@H](N)C(=O)O)c2ccccc21; Phe(4-Me) = Cc1ccc(C[C@H](N)C(=O)O)cc1; Lys(Me2) = CN(C)CCCC[C@H](N)C(=O)O; Cit = NC(=O)NCCC[C@H](N)C(=O)O
Experiments:
[1] = molecular target: T1, Human polyclonal immunoglobulin G (IgG) (human); experiment: affinity chromatography, peptide resin, 10 mg/mL hIgG in PBS; 2nd run, after resin contacted with alpha-chymotrypsin
T1 construct: also called hIgG; IVIG

[2] = molecular target: T1, Human polyclonal immunoglobulin G (IgG); experiment: affinity chromatography of Cohn fraction II+III on peptide resin; binding buffer PBS + 0.13M NaCl
albumin [3] = molecular target: T2, albumin (human, UniProt P02768 25-609); experiment: SDS-PAGE of fractions eluted from peptide resin loaded with Cohn fraction II+III
T2 construct: Impurity in the Cohn fraction II+III feed, seen on SDS-PAGE of the eluted fractions
T2 sequence (P02768 25-609 limits assumed): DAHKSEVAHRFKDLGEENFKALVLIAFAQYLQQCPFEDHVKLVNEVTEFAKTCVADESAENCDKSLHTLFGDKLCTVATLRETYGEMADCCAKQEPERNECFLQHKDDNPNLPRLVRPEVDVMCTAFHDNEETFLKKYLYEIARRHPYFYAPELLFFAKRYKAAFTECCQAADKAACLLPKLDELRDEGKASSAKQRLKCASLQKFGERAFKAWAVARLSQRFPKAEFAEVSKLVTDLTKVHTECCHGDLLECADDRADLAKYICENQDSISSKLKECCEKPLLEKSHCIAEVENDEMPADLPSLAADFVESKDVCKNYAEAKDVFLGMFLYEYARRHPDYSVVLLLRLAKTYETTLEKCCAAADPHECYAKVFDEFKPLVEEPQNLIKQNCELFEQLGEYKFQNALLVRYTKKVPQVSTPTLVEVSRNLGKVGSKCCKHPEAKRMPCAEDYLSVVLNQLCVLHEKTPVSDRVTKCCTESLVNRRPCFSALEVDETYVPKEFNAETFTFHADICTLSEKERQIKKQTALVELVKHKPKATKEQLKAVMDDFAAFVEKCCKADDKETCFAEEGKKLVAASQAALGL

[4] = molecular target: T1, Human polyclonal immunoglobulin G (IgG); experiment: affinity chromatography of Cohn fraction II+III on peptide resin; binding buffer PBS + 0M NaCl
[5] = molecular target: T1, Human polyclonal immunoglobulin G (IgG); experiment: affinity chromatography of Cohn fraction II+III on peptide resin; binding buffer PBS + 0.25M NaCl
[6] = molecular target: T1, Human polyclonal immunoglobulin G (IgG); experiment: affinity chromatography, peptide resin, 10 mg/mL hIgG in PBS; 1st run, before any enzyme
[7] = molecular target: T1, Human polyclonal immunoglobulin G (IgG); experiment: affinity chromatography of Cohn fraction II+III of human plasma on peptide resin; binding PBS + 0.25M NaCl, elution acetate pH 5.0; yield by Protein G chromatography
[8] = molecular target: T1, Human polyclonal immunoglobulin G (IgG); experiment: affinity chromatography, peptide on Toyopearl resin, pure human IgG load; yield = IgG eluted/IgG loaded, by Protein G chromatography
[9] = molecular target: T1, Human polyclonal immunoglobulin G (IgG); experiment: affinity chromatography, peptide resin, 10 mg/mL hIgG in PBS; 3rd run, after alpha-chymotrypsin and then trypsin
albumin [10] = molecular target: T2, albumin; experiment: SDS-PAGE of fractions from peptide resin loaded with Cohn fraction II+III at different NaCl

Row | Binder | IgG yield [1] [%] | IgG yield [2] [%] | binding result (albumin [3]) | IgG yield [4] [%] | IgG yield [5] [%] | IgG yield [6] [%] | IgG yield [7] [%] | IgG yield [8] [%] | IgG yield [9] [%] | binding result (albumin [10])
1 | H[Phe(4-Me)][Cit][Cit]HL-{Toyopearl AF‑Amino‑650M resin} (Variant of HFRRHL on Toyopearl resin; also called HFMetCitCitHL-Toyopearl) [HFMetCitCitHL] | 92 | – | binds | – | – | 90 | 89 | 90 | 91 | –
2 | H[Trp(1-Me)][Cit]G[Trp(1-Me)]V-{Toyopearl AF‑Amino‑650M resin} (Variant of HWRGWV on Toyopearl resin; also called HWMetCitGWMetV-Toyopearl) [HWMetCitGWMetV] | 91 | 90 | binds | 89 | 91 | 90 | 91 | 90 | 90 | –
3 | HFRRHL-{Toyopearl AF‑Amino‑650M resin} (Synthetic hexapeptide on Toyopearl resin; also called HFRRHL-Toyopearl) | 78 | – | binds | – | – | 93 | 91 | 93 | 54 | –
4 | HYFKFD-{Toyopearl AF‑Amino‑650M resin} (Synthetic hexapeptide on Toyopearl resin; also called HYFKFD-Toyopearl) | 76 | – | binds | – | – | 78 | 54 | 78 | 71 | –

Next, values leading:

Row | IgG yield [1] [%] | IgG yield [2] [%] | binding result (albumin [3]) | IgG yield [4] [%] | IgG yield [5] [%] | IgG yield [6] [%] | IgG yield [7] [%] | IgG yield [8] [%] | IgG yield [9] [%] | binding result (albumin [10]) | Binder
5 | 72 | 85 | binds | 90 | 85 | 95 | 85 | 95 | 36 | – | HWRGWV-{Toyopearl AF‑Amino‑650M resin} (not fully specified, Synthetic hexapeptide made directly on Toyopearl AF-Amino-650M resin after a first Fmoc-Ala-OH coupling, about 0.12 meq/g; also called HWRGWV-Toyopearl; original peptide ligand)
6 | 49 | – | binds | – | – | 52 | 48 | 42 | 53 | – | H[Tyr(Me)][Phe(4-Me)][Lys(Me2)][Phe(4-Me)]D-{Toyopearl AF‑Amino‑650M resin} (Variant of HYFKFD on Toyopearl resin, used as a negative control; also called HYMetFMetK(Met)2FMetD-Toyopearl) [HYMetFMetKMet2FMetD]
7 | – | 93 | – | 91 | 94 | – | – | – | – | binds | Ac-H[Trp(1-Me)][Cit]G[Trp(1-Me)]V-{Toyopearl AF‑Amino‑650M resin} (Acetylated HWMetCitGWMetV on Toyopearl resin; also called Ac-HWMetCitGWMetV-Toyopearl) [Ac-HWMetCitGWMetV]
